Measured values: the DeepSol protein solubility set

Assay: soluble on expression in E. coli; label from the status in PepcDB or PDB records

Sequence	soluble on expression in E. coli
MGSSHHHHHHSSGLVPRGSHMNTNSNTMVMNDANQAQITATFTKKILAHLDDPDSNKLAQFVQLFNPNNCRIIFNATPFAQATVFLQMWQNQVVQTQHALTGVDYHAIPGSGTLICNVNCKVRFDESGRDKMGQDATVPIQPNNTGNRNRPNDMNKPRPLWGPYFGISLQLIIDDRIFRNDFNGVISGFNYNMVYKPEDSLLKI	soluble
MGSDKIHHHHHHMKQVSIIGAGIGGLTAAVRLQKLGYNVTIYEQNAQPGGKMNQIVSQGFTFDVGPTIVMMKDIYEEVFRFCGVDPHNYLPFEEVQPLMHLVFGDQSSLDLSRDLPTLIAEINRIAPDDVNGMLNFLADIYHRYTIAKPNFLERSFRNWRDFYNLPALYAGLQLRTFNNAYKNIAKFIKNENLRNSLAFQTLYIGISPYQGPSLYNIIPMIELFYGVYFLKGGMYTVVNSLVKLFKEQGGTLKLATPVQEIIIKDKVAVGIRVNNHPIHSDYVLCNADFPTAMTTLIPNEQDRGQYTDQKIAKMDYSCSCLVLYLGLDKKYPTEALHTIHFAQDFSKNVADLFDNGKLPEDPSYYVYVPSKMDPSLAPENSEALYVLVPVPELSKFNDWSPTTLKNYRQLIINKLRQTATFSDIEQHIVVEKQFTPVDFKEQFGAYNGATFGLRPTLKQSNYYRPHNKFDYADHLYFCGSSTHPGAGVPIVMQSAKLAVEELIKDDQTNA	not soluble
MDLEEQKKAVIEKLIREGYIKSKRVIDALLKVPREEFLPEHLKEYAYVDTPLEIGYGQTISAIHMVGMMCELLDLKPGMKVLEIGTGCGYHAAVTAEIVGEDGLVVSIERIPELAEKAERTLRKLGYDNVIVIVGDGTLGYEPLAPYDRIYTTAAGPKIPEPLIRQLKDGGKLLMPVGRYLQRLVLAEKRGDEIIIKDCGPVAFVPLVGKEGFQG	soluble
MSAEAADREAVSGSRPCTPPQTSWFEFLLNPSLLEQHLHSPHPDPSPVQLIFQFLEQASKPSVNEQNQVQPPVDNRRNRTLKLMALKVAAHLRWDLNMLEKGLTIPVLNMLLNELLCVSHVPPGVKHVDLDLSSLPPTTAMAVVFYNRWAIRTIVLSSFPEKQTKPGPHQLNMMNMLQQEKEHTENILSVLREQATDSIMVLEGALSIKKDFYIHL	not soluble
MGSDKIHHHHHHMPIHLIWGDDAAARDHAIETLIGDVVDQAWSSINLSRLDGADAGQASQALAEARTPPFGSGGRLVLLQRSPFCNACPSELANRFEDVLDLIPETSHLVLCNPNKPDGRLRTTKALQKLVKLKQASEKSFLLPAIWDGAGQQELVERTARDLGLQLEPEATAALVEAIGNDSTRLTAELQKLALHADIRQESATENQSPTLIKAENVAALIEGMATNALQVGDSLLAGHAGEAIARLDALLDAGEPALRIVATLTGQIRGWLWVSLLEQQGERDVNVIAKAAGIGNPKRIYVMRKQLQGRPPQRFLTLLSRLLEVEAALKRGAIPTDAFRDGLLSTP	not soluble
MGSDKIHHHHHHMRFSRIPPIFANVVRQTHYRNYANGVIKPREFNKVMVANRGEIAIRVFRALTELNKTSVAIYAEQDKNSMHRLKADEAYLVGKGLPPVAAYLTIDQIIETALKHNIDAIHPGYGFLSERSDFAAACQNAGIVFIGPSPDVMARMGDKVAARQAAIEAGVQVVPGTPGPITTADEAVEFAKQYGTPIILKAAYGGGGRGIRRVDKLEEVEEAFRRSYSEAQAAFGDGSLFVEKFVERPRHIEVQLLGDHHGNIVHLYERDCSVQRRHQKVVEIAPAPALPEGVREKILADALRLARHVGYQNAGTVEFLVDQKGNYYFIEVNARLQVEHTVTEEITGVDLVQAQIRIAEGKSLDDLKLSQETIQTTGSAIQCRVTTEDPAKGFQPDSGRIEVFRSGEGMGIRLDSASAFAGSVISPHYDSLMVKVIASARNHPNAAAKMIRALKKFRIRGVKTNIPFLLNVLRQPSFLDASVDTYFIDEHPELFQFKPSQNRAQKLLNYLGEVKVNGPTTPLATDLKPAVVSPPIPYIPAGAKPPTGLRDVLVQRGPTEFAKEVRSRPGCMITDTTFRDAHQSLLATRVRTYDMAAISPFVAQSFNGLFSLENWGGATFDVSMRFLHECPWERLQTLRKLIPNIPFQCLLRGANAMGYSNYPDNVIYKFCELAVKNGMDVFRVFDSLNYLPNLLVGMEAVGKAGGVVEAAIAYTGDVTDKSRDKYDLKYYLNLADQLVKAQAHILSIKDMAGVLKPEAAKLLIGALRDKFPDIPIHVHTHDTSGAGVAAMLECAKAGADVVDAAVDSMSGMTSQPSMGAIVASLQGTKHDTGLSLDDISKYSAYWESTRQLYAPFECATTMKSGNADVYKHEIPGGQYTNLQFQAFSLGLGPQFDEVKRMYREANLVLGDIIKVTPSSKIVGDLAQFMVQNNLTRETLVDRADDLSFPKSVVDFMQGNVGQPPYGFPEPLRTKVLRGKPKVDGRPGENAKPVDLDAVKVELEEKHGRTLSEEDVMSYSMFPTVFDEFETFRQQYGPVDKLPTRLFLTGLEIAEEVDVEIESGKTLAIQLLAEGKLNKRGEREVFFDLNGQMRSIFVVDKEASKEIVTRPRALPGVRGHIGAPMPGDVLELKIKEGDKVTKKQPLFVLSAMKMEMVIDSPIAGTVKAIHAPQGTKCSAGDLVVEVEP	not soluble
MSLRERPVIDELSKVKKLKLTGQTEALFESWRSSWDEIETRLFPDLEEVLLEAEMNTDRYKFRSATHAENDIEQMLVVIEKQMDQILGGLKELLISEEKNAKESRATKEKFAELRREVLTRGFKLGETLPYIETKLSELSESLNSYDSLTDQGDHLEAREIVIVVQKEMQVIEAQMERIPSLLHETDTILPEEMTKLRAGYEEMVRKGYYLAQMELDKEISRMKNQIDKMKKNVINLDLDEAEQGVEELHNEIDLFYDTLEHEAEARHFVKENHSPTSDKLQRQNAVSDALAEQITEVKQTYHVAEDDLAVYLKTSAKLSEAKENFEQLTALIASGEIAYSAAQDTLKEIDAALITISAEQDKFAEELRSLRKDELEARDDAERMRRAIITLDRKMERERLPGLPEEYLSLREHMGESINALEKRLEEKPLNMKAVSQDWRIAEEDLTHLTEKAEEMMENVRLVEHVIQYANRYRLRNKELADELVQAENHFYNDYQYKKALEIAVTALEKVETGAFKKVEKAYESKVSVDEGHHHHHH	not soluble
AKDALLLWCQMKTAGYPNVNVHNFTTSWRDGLAFNAIVHKHRPDLLDFESLKKCNAHYNLQNAFNLAEKELGLTKLLDPEDVNVDQPDEKSIITYVATYYHYFSKMKALAVEGK	soluble
MPGACGIYALATVSKPDPDMTQIITALAEISERYRALFVDLWGCVHNGVTAYPEAVAALQAYRAAGGIVVLVTNSPKPRAGVATQLSQFKVPQDAYDTIATSGDSARSAMFRGAVGQKVYFMGEWERDAGFFEPLKLLDSPVEITRVPLQEAEGIVCCGPFDPMADPAVNRPDFLYAKTKGMKLLCANPDIVVDRGEIREWCAGALARLYTEMGGESLYFGKPHPPIYDLARRRLLSLGADIADSEILAIGDGIQTDIAGGQGEGIDSLFISGGLAASETKTGHSPDPAALTAYLDRENRMPTYTIGQLR	not soluble
GHMASNVANDGERPSRVVELTDETFDSIVMDPEKDVFVLYYVPWSRHSVAAMRLWDDLSMSQSQKRNHLTFVAARIDGEKYPDVIERMRVSGFPTMRYYTRIDKQEPFEYSGQRYLSLVDSFVFQNT	soluble
MAIYTVKALITDPIDEILIKTLREKGIQVDYMPEISKEELLNIIGNYDIIVVRSRTKVTKDVIEKGKKLKIIARAGIGLDNIDTEEAEKRNIKVVYAPGASTDSAVELTIGLMIAAARKMYTSMALAKSGIFKKIEGLELAGKTIGIVGFGRIGTKVGIIANAMGMKVLAYDILDIREKAEKINAKAVSLEELLKNSDVISLHVTVSKDAKPIIDYPQFELMKDNVIIVNTSRAVAVNGKALLDYIKKGKVYAYATDVFWNEPPKEEWELELLKHERVIVTTHIGAQTKEAQKRVAEMTTQNLLNAMKELGMI	soluble
MSLIKVIDAHVHYHIYARKIPEHCKEFLENVEGTRMTLKNDNVEIEKILLVPSHPCHSEDCYDGFYIDYEERKRNPDLYMQWGEVNPLKCDVKRELERQYSLGIIGIKLHPVHHTFKPNAYREEEGGLKQLLYIYEFAEDHGLPILIHTGTSIGVGSRNKYADPIYADDIAKDFPKLRIILAHAGRPLWYNTAFHMARFTQNIFLEISSIPPKNILKVLPRIHEISDKVIYGSDFPAFKGQDLAEYAYQVYNVLKNEKIMRDNAKRILKISEGHHHHHH	not soluble
MDLYEKIKLLASEKKMSIRQLEETLGFGNGVINRWRKNTPGSDKLKKVADYFNISVDYLLGRTDNPNSNNLEEDEITTFFRVNTEDLTESEKDQLREELKEYLEFMKSRLKNK	soluble
MGSDKIHHHHHHMVENYNFSGVPMRLDDLTYMNPWWEGREDYHVRRWKEQRLHWKPGWLEKLSLKPFSLNFVLGPRQVGKTTGIKLLIQELLKDNPPESILYINVKVLPGHRELLNLLREFQELKEKEGVKTGYIFLDEVTSLEGWWRGVKPLIDAGLLKNDVVTVTGSSSLGVRRDIELFPGRRGSGKTIEVMPLSFPEYVEVMGLKKPELYREKVLKLFEDYLTTGGFPTSINGLPMEDLLGAYIGEIVRFGKSLEIAKETLSALIRSAPSATSFRALAGITSGYSYKVVQDYIELFTELYVLGIAYLKQGNQVLYKREKKFFFRDPLLARLFALWSGTELKEDALYEWVVQEHLYRRFGEVYYYRNSYEIDAIAGDLKVEVKAGKTHRRYPKNVRVLEKEDVPFFLLELTHESTSRF	not soluble
MSIPVPMETGANSEAWKKANEALMKIQGGMSKGLNASNGNNNTGQNSWMNNSFSFPNPPSAYGQFGGGFHPSTWGSGPIVPPPPPQQSAVNATAQAAYNQASFNYAPPPPPQNWNNGYGRGRGGGANNWNQQQRPQQFQPFALNRKNNSSAFPHLTSTFVPQGGGPQPLMGVGRGRGVPAPGPAKPPPPSAQRYMERAFEAANTVEDRQKTQEYLQKRLFPMLNAGNAHMVNWDNEPLPHEKNYELAPAWTPANKLPHQANGFNRKKSPSRRRSDEMSNSGAAGGGGQMKRARRDSDGASSDSDNSDPLEKMHFSSMNQKKTKAQKKAEKAARKAAKKLQKQQTPQKVKNAWKVAGGDTEARREDRARRFAETLYNVSKPSVSVPQHYFRRGQVIRGTCQNIEKSFFRLTAAPNPSEVRPLEVLRLSLQNVRDKYRARAEYSYLTSQMRSIRQDLTVQVIRNEFTVEVYEINARISLENADREEFNKCQSQLKLLYSEIENCANQAEFVAYRLLYYIAMDNQIDINALLRELTPELKENDCVEFALNVRKAVTMNNYVKFFRLFKNAPRMCPYIMDLFVDRERKKALGIITKAFRPTITYKLIAEFLSMKESTLIDWLEEELKWTDVEVGGTFDPKIPRNI	not soluble
AEAEFNNYCKIKCLKGGVHTACKYGSLKPNCGNKVVVSYGLTKQEKQDILKEHNDFRQKIARGLETRGNPGPQPPAKNMKNLVWNDELAYVAQVWANQCQYGHDTCRDVAKYQVGQNVALTGSTAAKYDDPVKLVKMWEDEVKDYNPKKKFSGNDFLKTGHYTQMVWANTKEVGCGSIKYIQEKWHKHYLVCNYGPSGNFKNEELYQTK	soluble
MNLNFSLLDEPIPLRGGTILVLEDVCVFSKIVQYCYQYEEDSELKFFDHKMKTIKESEIMLVTDILGFDVNSSTILKLIHADLESQFNEKPEVKSMIDKLVATITELIVFECLENELDLEYDEITILELIKSLGVKVETQSDTIFEKCLEILQIFKYLTKKKLLIFVNSGAFLTKDEVASLQEYISLTNLTVLFLEPRELYDFPQYILDEDYFLITKNMV	not soluble
GSHMASMFGKLREKLKSFVKRVEEEVEKEEEEVEKKGLLDRILTVEIKEKDVDKALDELEIDLLEADVALEVVDALREKIKQKLVGKKVRIGTDKGKIIEEAVKEAVSEILETSRRIDLIEEIRKAEKPYVIMFVGFNGSGKTTTIAKLANWLKNHGFSVVIAASDTFRAGAIEQLEEHAKRIGVKVIKHSYGADPAAVAYDAIQHAKARGIDVVLIDTAGRSETNRNLMDEMKKIARVTKPNLVIFVGDALAGNAIVEQARQFNEAVKIDGIILTKLDADARGGAALSISYVIDAPILFVGVGQGYDDLRPFEKEWFLERIFGEENA	soluble
